For assay [1], the target named is T1, native form of secretory sPD-L1-3, in culture supernatant of transfected MC38 cells (human, UniProt Q9NZQ7 19-178).
T1 construct: Untagged, secreted by MC38 cells; also called sPD-L1-3/12
In words: indirect (sandwich) ELISA: antibody coated, MC38 culture supernatant with sPD-L1-3. On the technique in general: An ELISA detects its analyte on a solid surface through an enzyme-linked reagent.

Assay [2] deals with T2, pan IgC segment of human PD-L1, expressed on MC38 / CHO-K1 cells (human, UniProt Q9NZQ7 132-238).
T2 construct: also called PD-L1-pan-IgC; hPD-L1 pan-IgC segment
As to the kind of experiment: flow cytometry on cells expressing pan IgC. The protocol: (§1) MC38/CHO-K1 cells expressing either PD-L1 or pan IgC were used as positive detection cells. MC38/CHO-K1 wild type cells and PD-L2-expressed MC38/CHO-K1 cells were used as negative control. About 1×10⁵ negative and positive cells were stained with either sera from immunized mice (1:100, 1:1000, 1:10000 dilutions) or culture supernatant (50 μl) from hybridoma, or mouse monoclonal antibody (concentrations as indicated in the figures), or other humanized antibodies (concentrations as indicated in the figures), and incubated at 4° C. for 15 min. After washed with PBS, the cells were stained with a PE conjugated goat anti mouse IgG (BD biosciences) and incubated in dark place at 4° C. for 15 min. After washed with PBS, the stained cells were analyzed by a flow cytometry (NovoCyte, Acebio, Hangzhou).
(§2) MC38 cells expressing either hPD-L1 or pan-IgC were used as positive detection cells, whereas, both hPD-L2 expressed and parental MC38 cells were used as negative detection cells.
(§3) 50 μl/well of hybridoma culture supernatant or 100 ng/well mouse monoclonal antibody were mixed with 1×10 5 of either positive or negative detection cells at 4° C. for 15 min. After washed with PBS, the cells were stained with a PE conjugated goat anti mouse antibody (BD biosciences) at 4° C. for 15 min in dark place.

In assay [3] the target is T3, recombinant PD-L1-3-HIS (secretory splice variant PD-L1-3 with HIS tag, from HEK293 cells) (human, UniProt Q9NZQ7 19-178).
T3 construct: The range 19-178 comes from the background paragraph; also called rPD-L1-3-HIS; sPD-L1-3-HIS; not shown: HIS tag
In words: direct ELISA, 50 ng/well rPD-L1-3-HIS coated.

Assay [4] addresses T4, human PD-L1 (membrane-bound type), expressed on MC38 / CHO-K1 cells (human, UniProt Q9NZQ7 19-290).
T4 construct: Full-length gene transfected into MC38 and CHO-K1 cells; also called hPD-L1
In words: flow cytometry on MC38 cells expressing hPD-L1. The protocol:
as §1, §2, §3

Assay [5] deals with T5, human CD80 (membrane-bound type), on cells (human, UniProt P33681 35-288).
T5 construct: whole, on cells
T5 sequence (looked up): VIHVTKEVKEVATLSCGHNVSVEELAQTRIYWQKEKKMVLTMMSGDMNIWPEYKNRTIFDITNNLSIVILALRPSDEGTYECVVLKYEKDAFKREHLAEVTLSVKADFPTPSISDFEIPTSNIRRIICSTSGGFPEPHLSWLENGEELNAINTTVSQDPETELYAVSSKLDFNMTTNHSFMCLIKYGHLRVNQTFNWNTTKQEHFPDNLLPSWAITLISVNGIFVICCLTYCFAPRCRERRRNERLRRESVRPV
In words: flow cytometry on cells with membrane-bound human CD80.
From the text: FIG. 10. […] C. CHO-K1 parental cells were used as a negative control. Clone #2D10: human CD80 mouse monoclonal antibody (Elabscience, Wuhan). 2nd antibody: PE labeled goat anti-mouse antibody (BD Biosciences)
as §1
On the technique in general: Flow cytometry measures light scatter and fluorescence of single cells or particles in a stream.

Assay [6] deals with T2, pan IgC segment of human PD-L1, …. As to the kind of experiment: flow cytometry on cells with pan-IgC.
Assay [7] has as its target T6, human PD-L2 (membrane-bound type), expressed on CHO-K1 cells (human, UniProt Q9BQ51 20-273).
T6 construct: whole, on cells; also called hPD-L2
T6 sequence (looked up): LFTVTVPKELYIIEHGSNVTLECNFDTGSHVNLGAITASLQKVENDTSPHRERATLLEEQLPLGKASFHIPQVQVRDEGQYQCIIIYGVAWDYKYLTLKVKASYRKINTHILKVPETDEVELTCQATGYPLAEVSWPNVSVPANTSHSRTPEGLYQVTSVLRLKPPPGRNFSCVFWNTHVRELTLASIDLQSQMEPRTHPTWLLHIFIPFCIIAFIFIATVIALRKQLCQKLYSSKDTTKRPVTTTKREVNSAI
As to the kind of experiment: flow cytometry on cells with membrane-bound human PD-L2.

The target of assay [8] is T4, human PD-L1 (membrane-bound type), …. In words: flow cytometry on cells with membrane-bound PD-L1.
Assay [9] addresses T1, native form of secretory sPD-L1-3, in …. In words: ELISA with MC38 culture supernatant containing native sPD-L1-3.
Assay [10] addresses T6, human PD-L2 (membrane-bound type), …. As to the kind of experiment: flow cytometry on cells with membrane-bound human PD-L2; the antibody also bound the CHO-K1 parental cells.

As usually defined, the EC50 is the midpoint of the concentration-response curve. A high value points to lower potency in that assay.

T2 sequence (Q9NZQ7 132-238): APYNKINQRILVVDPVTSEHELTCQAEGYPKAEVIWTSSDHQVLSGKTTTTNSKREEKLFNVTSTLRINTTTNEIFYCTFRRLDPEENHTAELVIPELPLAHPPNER
T1 sequence (Q9NZQ7 19-178): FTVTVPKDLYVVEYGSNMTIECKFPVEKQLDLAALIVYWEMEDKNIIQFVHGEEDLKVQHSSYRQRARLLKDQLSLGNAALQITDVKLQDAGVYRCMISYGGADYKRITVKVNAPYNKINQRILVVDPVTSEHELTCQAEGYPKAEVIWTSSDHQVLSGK
T4 sequence (Q9NZQ7 19-290): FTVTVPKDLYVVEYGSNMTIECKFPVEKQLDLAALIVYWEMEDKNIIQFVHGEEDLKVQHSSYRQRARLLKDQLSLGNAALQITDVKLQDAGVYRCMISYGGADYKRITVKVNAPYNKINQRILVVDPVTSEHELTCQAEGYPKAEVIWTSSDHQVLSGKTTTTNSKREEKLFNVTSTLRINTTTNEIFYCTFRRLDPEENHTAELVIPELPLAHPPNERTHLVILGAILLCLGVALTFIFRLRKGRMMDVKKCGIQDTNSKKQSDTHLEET
T3 sequence (Q9NZQ7 19-178, change not shown): as the sequence (Q9NZQ7 19-178) above

B1: PD-L1 mouse monoclonal antibody #19 (antibody, mouse IgG2b, V domains shown)
VH: EVQLQQSGPELVKPGASVKISCKASGSAFSSSWMNWLKQRPGQGLEWIGRIYPGDGDTNYNGKFKGKATLTADKSSSTAYMQLSSLTSVDSAVYFCARRRANHYGSNWYFDVWGAGTTVTVSS
VL: NIVLTQSPASLAVSLGQRATISCRASESVDSYGKSFMHWYQQKPGQPPKLLIYLASNLESGVPARFSGSGSRTDFTLTIDPVEADDAATYYCQQNNEDPYTFGGGTKLEIK
notes: also called mAb #19; Ab #19
Regarding B1, the binding result is reported as “no binding (tested: 0.2 µg/well coated antibody)” in assay [1], “binds” in [2], “no binding (tested: 100 ng/100 µl/well)” in [3] and “binds” in [4].

B2: humanized PD-L1 antibody H6L5 (VH6 + VL5) (antibody, V domains shown)
VH: EVQLQQSGAEVKKPGSSVKVSCKASGSAFSSSWMNWLKQRPGQGLEWIGRIYPGDGDTNYNGKFKGRVTLTADKSSSTAYMQLSSLRSEDTAVYFCARRRANHYGSNWYFDVWGAGTTVTVSS
VL: NIVLTQSPASLSASVGDRVTISCRASESVDSYGKSFMHWYQQKPGQPPKLLIYLASNLESGVPARFSGSGSRTDFTLTIDSLQPEDFATYYCQQNNEDPYTFGGGTKLEIK
As to B2, the figures for the binding result in assay [5], in assay [6] and in assay [7] were “no binding”, “binds” and “no binding”, respectively.

B3: humanized PD-L1 antibody H6L2 (humanized mouse monoclonal antibody #19, VH6 + VL2) (antibody, V domains shown)
VH: EVQLQQSGAEVKKPGSSVKVSCKASGSAFSSSWMNWLKQRPGQGLEWIGRIYPGDGDTNYNGKFKGRVTLTADKSSSTAYMQLSSLRSEDTAVYFCARRRANHYGSNWYFDVWGAGTTVTVSS
VL: NIVLTQSPSSLSASVGDRVTITCRASESVDSYGKSFMHWYQQKPGQPPKLLIYLASNLESGVPSRFSGSGSRTDFTLTISSLQPEDFATYYCQQNNEDPYTFGGGTKLEIK
notes: also called humanized antibody H6L2; humanized antibody #19
For B3, the binding result in assay [5], in assay [7] and in assay [9] was “no binding” each time. For the same molecule, it took 0.62 µg/mL to reach a half-maximal effect in [8] (EC50).

B4: humanized PD-L1 antibody H5L4 (VH5 + VL4) (antibody, V domains shown)
VH: EVQLVQSGAEVKKPGASVKVSCKASGSAFSSSWMNWLRQRPGQGLEWIGRIYPGDGDTNYNGKFKGRVTLTADKSISTAYMELSRLRSVDTAVYFCARRRANHYGSNWYFDVWGAGTTVTVSS
VL: NIVLTQSPASLSASVGDRVTISCRASESVDSYGKSFMHWYQQKPGQPPKLLIYLASNLESGVPARFSGSGSRTDFTLTISSLQPEDFATYYCQQNNEDPYTFGGGTKLEIK
B4: the binding result in [10] was “binds”.

B5: humanized PD-L1 antibody H4L4 (VH4 + VL4) (antibody, V domains shown)
VH: EVQLVQSGAEVKKPGSSVKVSCKASGSAFSSSWMNWLRQRPGQGLEWIGRIYPGDGDTNYNGKFKGRVTLTADKSSSTAYMELSSLRSVDTAVYFCARRRANHYGSNWYFDVWGAGTTVTVSS
VL: NIVLTQSPASLSASVGDRVTISCRASESVDSYGKSFMHWYQQKPGQPPKLLIYLASNLESGVPARFSGSGSRTDFTLTISSLQPEDFATYYCQQNNEDPYTFGGGTKLEIK
B5: the binding result in [6] was “binds”.

(Values after patent US20230406936A1 (IMMUNOURCHIN, published 2023).)
